Legend:
[1] = biological target: LZ-Myo5(1146–1220), biotinylated leucine zipper dimeric form of the Myo5 CA segment (S. cerevisiae) (UniProt P03069); experiment: supernatant depletion binding assay; biotinylated LZ-Myo5–CA dimer on magnetic streptavidin beads (25 nM to 1.6 μM dimer for the WT isotherm; 0.4 μM dimer for mutants); 50 nM Arp2/3 complex in solution; 1x PC buffer plus 0.05% Tween-20; 70 min, room temperature; Arp2/3 complex left in the supernatant quantified by anti-Arp3 dot blot
[2] = biological target: LZ-Las17(281–633), biotinylated leucine zipper dimeric form of Las17 residues 281–633 (S. cerevisiae); experiment: supernatant depletion binding assay; biotinylated LZ-Las17(281–633) dimer on magnetic streptavidin beads (16 nM to 2.06 μM dimer for the WT isotherm; 0.6 μM dimer for mutants and CA fusions); 50 nM Arp2/3 complex in solution; 1x PC buffer plus 0.05% Tween-20; 70 min, room temperature; Arp2/3 complex left in the supernatant quantified by anti-Arp3 dot blot
[3] = biological target: Monomeric Las17(281–633) (S. cerevisiae) (UniProt Q12446)

Q: Which Kd [1] does the source give for “WT S. cerevisiae Arp2/3 complex (ARPC2 with C-terminal tandem 12xHis and TwinStrep tags) (from UniProt P47117 1-449; P32381 1-391; P38328 1-384; P53731 1-342)” here?
A: 130 nM

Q: And the Kd [2]?
A: 160 nM

Q: For “S. cerevisiae Arp2/3 complex with the CA segment of N-WASP fused to Arp2 (Arp2–CA fusion complex) (from UniProt P47117 1-449; P38328 1-384; P53731 1-342)”, which percent of the complex pulled down at 0.6 μM (LZ-Las17(281–633))2 [2] is on record?
A: 30%

Q: “S. cerevisiae Arp2/3 complex with the CA segment of N-WASP fused to Arp3 (Arp3–CA fusion complex) (from UniProt P32381 1-391; P38328 1-384; P53731 1-342)” was tested. Which percent of the complex pulled down at 0.6 μM (LZ-Las17(281–633))2 [2] did it give?
A: 73%

Q: Which reduction in binding compared with the WT complex [2] does the source give for “S. cerevisiae Arp2/3 complex with Arp2(V142A, Y146A) (from UniProt P47117 1-449; P32381 1-391; P38328 1-384; P53731 1-342)” here?
A: 50%

Q: With “S. cerevisiae Arp2/3 complex with ARPC1(F183A, K185D) (from UniProt P47117 1-449; P32381 1-391; P38328 1-384; P53731 1-342)” as the substance, how does the reduction in binding compared with the WT complex [2] read?
A: 50%

Q: Which maximum polymerization rate in pyrene actin polymerization assay as percent of WT activity; 20 nM Arp2/3 complex, 3 μM 15% pyrene actin, 1.5 μM monomeric Las17(281–633), PC buffer (% of the WT activity) [3] does the source give for “S. cerevisiae Arp2/3 complex with Arp3(W191A, T192A) (from UniProt P47117 1-449; P32381 1-391; P38328 1-384; P53731 1-342)” here?
A: 17

Q: “S. cerevisiae Arp2/3 complex with Arp3(R403D, K404D) (from UniProt P47117 1-449; P32381 1-391; P38328 1-384; P53731 1-342)” was tested. Which maximum polymerization rate in pyrene actin polymerization assay as percent of WT activity; 20 nM Arp2/3 complex, 3 μM 15% pyrene actin, 1.5 μM monomeric Las17(281–633), PC buffer (% of the WT activity) [3] did it give?
A: 20

Q: “S. cerevisiae Arp2/3 complex with Arp3(R371D) (from UniProt P47117 1-449; P32381 1-391; P38328 1-384; P53731 1-342)” was tested. Which reduction in binding compared with WT Arp2/3 complex [2] did it give?
A: 30%

Q: What about the maximum polymerization rate in pyrene actin polymerization assay as percent of WT activity; 20 nM Arp2/3 complex, 3 μM 15% pyrene actin, Las17(281–633), PC buffer (% of the WT activity) [3] of the same substance?
A: 56
